Test results published in the supplement of paper PMC10567573.
± gives the standard deviation.

Assay: protein stability index of a GFP-peptide fusion (GPS, HEK-293T) (PSI 1-6); higher = more stable
[1] = treatment: DMSO, c terminus: a fixed tail appended
[2] = treatment: MLN4924 1 uM, 8 h, c terminus: a fixed tail appended
[3] = treatment: DMSO, c terminus: native
[4] = treatment: MLN4924 1 uM, 8 h, c terminus: native
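Note: 24-mer peptide tiles fused after GFP, lentivirally expressed, FACS-sorted into six equal bins by GFP/DsRed ratio, decoded by Illumina sequencing, PSI is the read-weighted mean bin number.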

| Sequence | protein stability index [1] | protein stability index [2] | protein stability index [3] | protein stability index [4] |
| --- | --- | --- | --- | --- |
| SSKSDADSGFLGLRPTSVDPALRR [NOP53] | 4.51 ± 0.2 | 4.51 ± 0.22 |  |  |
| SIIECDMNVDFDAPLGYKEPERQV [UFD1] | 4.27 ± 0.22 | 4.31 ± 0.18 |  |  |
| HMAKERAHSTASHSSSNSEDTEM [PDZK1] |  |  | 5.48 ± 0.26 | 5.39 ± 0.27 |
| KVLGHVNNILISAVLPTAFRVAKK [GDAP1] | 2.83 ± 0.59 | 2.44 ± 1.3 |  |  |
| LEQKTQESQKKKQQDDSDEYDDDD [ZNF207] | 5.62 ± 0.12 | 5.61 ± 0.34 |  |  |
| FMKYVDSNLCCFIPGKVIDEIYRV [FBXO28] | 2.99 ± 0.91 | 2.65 ± 0.4 |  |  |
| IPVAMEHQPPYIIAVLPRYVEIRT [VPS39] | 2.6 ± 0.48 | 2.44 ± 0.46 |  |  |
| EGPMEEEEAQPMAAPEGKRSLANG [EID1] | 5.66 ± 0.25 | 5.58 ± 0.21 |  |  |
| VGEKNCTGPPCDRQWTVSDWGPCS [ADAMTSL2] | 3.53 ± 0.3 | 3.32 ± 0.66 |  |  |
| PNSTKNQSLPKASPVTTSPTAATT [LCOR] | 4.91 ± 0.23 | 5.03 ± 0.26 |  |  |
| QTGGDVNVEMDAAPGVDLSRILNE [KRT16] | 4.97 ± 0.31 | 5.18 ± 0.085 |  |  |
| TMARIRRVYVSGLMKGGADLFVEN [APMAP] | 2.2 ± 0.3 | 2.07 ± 0.25 |  |  |
| LEQASSHIGNSTQATVRDAVVGRP [ATL3] | 5.03 ± 0.26 | 5.03 ± 0.35 |  |  |
| GSNRSGSDRRKEKDPKAGDSKSGG [DVL3] | 5.63 ± 0.21 | 5.47 ± 0.23 |  |  |
| GLFFPPQLNGTANDTAGPELPDPL [NFE2L1] | 4.29 ± 0.27 | 4.45 ± 0.23 |  |  |
| VLGAHRGHPVGLALEAAVHVQKLS [TRIM14] | 2.63 ± 0.3 | 2.91 ± 0.26 |  |  |
| LKSQPLPLRSSLPISLQATPATPA [TFE3] | 3.92 ± 0.14 | 4 ± 0.26 |  |  |
| EGHCVIQVDVGDVNDNAPEVLLAS [PCDHGC5] | 3.86 ± 0.35 | 3.96 ± 0.27 |  |  |
| GVSEILLKTQMKMSLKCLAARAVR [FEM1B] | 2.65 ± 0.56 | 2.58 ± 0.26 |  |  |
| IKQIQQLFEEILSNSRQLKWLSCG [FBXO33] | 3.57 ± 1.6 | 1.94 ± 0.58 |  |  |
| NGPDCGYGSFHQQYWLDGKIIAVG [ATE1] | 2.35 ± 0.42 | 2.26 ± 0.26 |  |  |
| LLDDSKTWWRVRNAANRTGYVPSN [NCK2] | 2.93 ± 0.23 | 2.79 ± 0.15 |  |  |
| SSQERKFMEERELLGQDEETAMRK [RSPH3] | 5.47 ± 0.38 | 5.51 ± 0.3 |  |  |

| Sequence | protein stability index [1] | protein stability index [2] | protein stability index [3] | protein stability index [4] |
| --- | --- | --- | --- | --- |
| KKLHKIQNKAQRQKDLIMKVENLT [TAF7L] | 3.23 ± 0.17 | 3.37 ± 0.12 |  |  |
| TSSSTSGSSDKVYAHQMVRTDSRE [MLH1] | 5.08 ± 0.17 | 5.1 ± 0.17 |  |  |
| DIMETSGWKSMIQSHPHLVAEAFR [SPOPL] | 2.49 ± 0.37 | 2.68 ± 0.54 |  |  |
| LIGRPGNKTQQVIHIIDFGLAKEY [CSNK1G3] | 2.38 ± 0.69 | 2.4 ± 0.43 |  |  |
| HEVLLCSDLVKAYQRCVSAAHKG [CHCHD6] |  |  | 2.56 ± 0.75 | 2.27 ± 0.45 |
| APVAEAWIPQAGPPELNYGATGEC [ZNF449] | 4.78 ± 0.12 | 4.88 ± 0.33 |  |  |
| FYHYFEDKENIYILLEYCSRRSMA [PLK2] | 2.34 ± 0.53 | 2.21 ± 0.27 |  |  |
| PYLLGPDKNLTEREVFNEIYPVWT [SLC19A2] | 2.35 ± 0.24 | 2.71 ± 0.26 |  |  |
| KYKCLLQQLYYTEADYEDDSKIAF [IQUB] | 2.12 ± 0.6 | 2.02 ± 0.32 |  |  |
| RGLRYYYDKNIIHKTAGKRYVYRF [ETS1] | 2.32 ± 0.2 | 2.46 ± 0.18 |  |  |
| YRFHEHWRFVLQRLVFLAAFVVYL [TSN] | 2.86 ± 0.37 | 2.8 ± 0.96 |  |  |
| FSSLNHIVEKRVLAHLAPLFDNPK [INTS3] | 2.27 ± 0.18 | 2.4 ± 0.44 |  |  |
| NWKETLVFPPEVPISEKAKDLILR [STK38L] | 2.81 ± 0.43 | 3.28 ± 0.29 |  |  |
| RAIMAHMTVEEIYKDRQKFSEQVF [FLOT1] | 2.52 ± 0.32 | 2.74 ± 0.3 |  |  |
| IFLFQDILVLTRPVTRNERHSYQV [NET1] | 2.58 ± 0.28 | 2.27 ± 0.27 |  |  |
| FRPGHLLANACLPVRTTNKISKQF [ZSWIM9] | 2.78 ± 0.12 | 2.8 ± 0.19 |  |  |
| TTALLHYQLPQMPDVVVRSFMTWL [MED27] | 2.59 ± 0.32 | 2.62 ± 0.3 |  |  |
| KMKQLTEETEVLAHEIERLQMEMK [TRIM35] | 4.06 ± 0.55 | 3.63 ± 0.28 |  |  |
| QRRHGWNPKDCSENIEVKEGGLYF [SPSB2] | 3.45 ± 0.31 | 3.76 ± 0.46 |  |  |
| YSGAYGASVSDEELKRRVAEELAL [CHCHD3] | 3.11 ± 0.52 | 3.53 ± 1.1 |  |  |
| QILGQTLKASMRELGLLIFFLFIG [KCNA1] | 2.67 ± 0.67 | 2.45 ± 0.51 |  |  |
| KQAEICQLEEKLEIANEDRKHALE [CCDC89] | 5.52 ± 0.28 | 5.49 ± 0.077 |  |  |
| KNERLWLLDDSKTWWRVRNAANRT [NCK2] | 2.31 ± 0.23 | 2.62 ± 0.37 |  |  |

| Sequence | protein stability index [1] | protein stability index [2] | protein stability index [3] | protein stability index [4] |
| --- | --- | --- | --- | --- |
| LVVIQQPSLDSRQRLDYEREIQPT [SPRY1] | 2.96 ± 0.2 | 3.1 ± 0.11 |  |  |
| LLAQARDEAQGACLQQKQVVAEAQ [LRRC45] | 4.847 ± 0.003 | 4.9 ± 0.087 |  |  |
| LSDDYEQVRSAAVQLIWVVSQLYP [INTS4] | 2.08 ± 0.43 | 2.13 ± 0.45 |  |  |
| GRTLIGFLRSIDQFANLVLHQTVE [LSM1] | 3.37 ± 0.64 | 2.75 ± 0.5 |  |  |
| CPQCGKCFARKSQLTGHQRIHSGE [ZNF449] | 5.1 ± 0.3 | 5.16 ± 0.087 |  |  |
| QNFKNRESYPEDTVFYIPEDHKPG [DLC1] | 4.63 ± 0.087 | 4.53 ± 0.44 |  |  |
| MGPAQEAPVAEAWIPQAGPPELNY [ZNF449] | 4.46 ± 0.27 | 4.51 ± 0.17 |  |  |
| IHAYNLGTNAWEEIATKPHEKIGF [KLHDC10] | 2.48 ± 0.15 | 2.57 ± 0.54 |  |  |
| KEKWWDGQRDRKAEHWKHKKEESG [PBXIP1] | 4.54 ± 0.21 | 4.66 ± 0.52 |  |  |
| QIGFSVGLGNIWRFPYLCQKNGGG [SLC6A17] | 2.02 ± 0.37 | 1.9 ± 0.33 |  |  |
| DTDRDGYISHRELGDCMRTLGYMP [CABP4] | 3.41 ± 0.22 | 3.47 ± 0.26 |  |  |
| EIAPQHRRGLLVSLNELMIVIGIL [SLC2A12] | 2.07 ± 0.11 | 2.33 ± 0.16 |  |  |
| TGWARKGLGNTWPGASGSAQSLDR [ATP23] | 4.17 ± 0.26 | 4.09 ± 0.16 |  |  |
| EWIKLDYHRRHNPKTNEDFEFLYN [IQUB] | 2.12 ± 0.19 | 2.24 ± 0.18 |  |  |
| FELDLGKKVLNLLKGAFPARLKKV [PTPN9] | 2.84 ± 1.1 | 2.34 ± 0.59 |  |  |
| SSEEFEDKWFRKIKDHFCPFENQF [C8orf76] | 2.87 ± 0.19 | 2.74 ± 0.5 |  |  |
| LPPSPRFLVMKGQEGAASKVLGRL [SLC2A12] | 3.34 ± 0.28 | 3.48 ± 0.83 |  |  |
| QLSRLNITYPMLFKLTNKNSDRMT [UFD1] | 2.33 ± 0.14 | 2.58 ± 0.42 |  |  |
| PSDLDLVMSEGLGMRYAFIGPLET [CRYL1] | 2.46 ± 0.63 | 2.6 ± 0.39 |  |  |
| AALCLEVTLKTAVDGPDLEMLTGQ [FKBP8] | 2.47 ± 0.38 | 2.49 ± 0.091 |  |  |
| EEKADVLARGPLNQTALHLAAAHG [RIPK4] | 4.5 ± 0.17 |  |  |  |
| VLLMAICIVSPDRPGVQDAALIEA [VDR] | 2.8 ± 0.33 | 2.77 ± 0.66 |  |  |
| MVKIFRLLPTKSLVALKCTCCYFK [FBXO34] | 3.18 ± 0.48 | 2.71 ± 0.69 |  |  |

| Sequence | protein stability index [1] | protein stability index [2] | protein stability index [3] | protein stability index [4] |
| --- | --- | --- | --- | --- |
| CMVCKKKIGNSAFARYPNGVVVHY [VPS39] | 2.37 ± 0.17 | 2.51 ± 0.41 |  |  |
| SGPAASEHSHRSHHSLASSLRSHH [DVL3] | 3.92 ± 0.16 | 3.91 ± 0.33 |  |  |
| PGAPGMPPGIPPLMPGVPPLMPGM [ZNF207] | 3.71 ± 0.13 | 3.62 ± 0.24 |  |  |
| NLDEEMKKIRQVIRKYNYVAMDTE [CNOT7] | 3.47 ± 0.14 | 3.38 ± 0.22 |  |  |
| DVGCISVTVPSMLSRLLSRKRAVP [OR3A1] | 2.71 ± 0.26 | 2.85 ± 0.19 |  |  |
| VSPGSPPPPLPNHKYNTTSTSYSP [PLAGL1] | 4.27 ± 0.15 | 4.21 ± 0.27 |  |  |
| FRQYCGAACTCHVRNPLSACSIM [RNF208] |  |  | 2.09 ± 0.19 | 2.18 ± 0.2 |
| RGRYGPPSRRSENRVVVSGLPPSG [SRSF1] | 4.08 ± 0.14 | 4.16 ± 0.17 |  |  |
| EHGPSPGQDTFCQGKADGLYPNPR [CHIT1] | 4.38 ± 0.26 | 4.36 ± 0.53 |  |  |
| SPCLPEAEAMFAINADGVGDAKD [RAD51] |  |  | 5.38 ± 0.16 | 5.34 ± 0.14 |
| DGGLLSGNEKITMQNLNDRLASYL [KRT15] | 3.12 ± 0.16 | 3.09 ± 0.2 |  |  |
| LGVCASGLLIYRDRLRINRFAWPK [EPB41L3] | 2.06 ± 0.046 | 2.4 ± 0.26 |  |  |
| PGYLVGRNNANGVDLNRNFPDLNT [CPN1] | 3.73 ± 0.36 | 3.67 ± 0.48 |  |  |
| FKKQIWLLFEYPESSSPARGIAIV [KCNA4] | 2.74 ± 0.17 | 2.42 ± 0.3 |  |  |
| NFCEPQDYRPMNHEAFKDELKTFR [CDC25B] | 4.04 ± 0.085 | 4.15 ± 0.25 |  |  |
| QGELADQDVDPVHNLIEQVSLGLG [FBXO33] | 4.55 ± 0.27 | 4.66 ± 0.072 |  |  |
| GGGISCVLQDGCVFEKAGVSISVV [CPOX] | 2.23 ± 0.63 | 2.41 ± 0.48 |  |  |
| VIFGVELPGNEEFQVVKDAVLDCL [TENT5D] | 2.23 ± 0.41 | 2.25 ± 0.24 |  |  |
| HDFLSDLFSDDYGGKNCKKPAEYG [CEBPB] | 3.83 ± 0.16 | 3.8 ± 0.17 |  |  |
| RELNDRLAVYIDKVRSLETENSAL [LMNB1] | 3.33 ± 0.24 | 3.04 ± 0.34 |  |  |
